Results reported in doi:10.1101/2021.01.07.425795 (bioRxiv, 2021).
Read-outs that look alike come from different tables or passages of the source.

B3: His6-ECSIT (natural protein, human, UniProt Q9BQ95 49-431, looked up)
chain: SSEQSLVPSPPEPRQRPTKALVPFEDLFGQAPGGERDKASFLQTVQKFAEHSVRKRGHIDFIYLALRKMREYGVERDLAVYNQLLNIFPKEVFRPRNIIQRIFVHYPRQQECGIAVLEQMENHGVMPNKETEFLLIQIFGRKSYPMLKLVRLKLWFPRFMNVNPFPVPRDLPQDPVELAMFGLRHMEPDLSARVTIYQVPLPKDSTGAADPPQPHIVGIQSPDQQAALARHNPARPVFVEGPFSLWLRNKCVYYHILRADLLPPEEREVEETPEEWNLYYPMQLDLEYVRSGWDNYEFDINEVEEGPVFAMCMAGAHDQATMAKWIQGLQETNPTLAQIPVVFRLAGSTRELQTSSAGLEEPPLPEDHQEEDDNLQRQQQGQS

Assays:
His6-ECSIT [1] = molecular target: B3; experiment: SEC
His6-ECSIT [2] = molecular target: B3; experiment: SEC; remark: listed apart in the source
ACAD9-His6 = molecular target: T1, ACAD9-His6 (human, UniProt Q9H845 38-621); experiment: pull-down
T1 sequence (looked up): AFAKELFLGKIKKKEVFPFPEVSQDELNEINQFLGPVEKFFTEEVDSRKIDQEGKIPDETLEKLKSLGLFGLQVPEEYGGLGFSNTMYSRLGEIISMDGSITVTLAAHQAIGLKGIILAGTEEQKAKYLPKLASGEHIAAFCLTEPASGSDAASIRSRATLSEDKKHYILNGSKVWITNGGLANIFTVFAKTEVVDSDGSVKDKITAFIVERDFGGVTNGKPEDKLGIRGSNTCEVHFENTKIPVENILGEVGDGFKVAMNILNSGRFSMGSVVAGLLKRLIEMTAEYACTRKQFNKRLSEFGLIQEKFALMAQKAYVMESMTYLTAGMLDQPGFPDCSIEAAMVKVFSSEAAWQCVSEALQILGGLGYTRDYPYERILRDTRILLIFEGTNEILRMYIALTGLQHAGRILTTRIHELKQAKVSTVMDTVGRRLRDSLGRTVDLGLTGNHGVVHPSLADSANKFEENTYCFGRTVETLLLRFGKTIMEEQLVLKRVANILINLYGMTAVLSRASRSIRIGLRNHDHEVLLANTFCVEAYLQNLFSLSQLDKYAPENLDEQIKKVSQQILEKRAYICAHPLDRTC

[3] = molecular target: T2, ACAD9 (wild type, without a tag) (human, UniProt Q9H845 38-621); experiment: SEC
T2 sequence (looked up): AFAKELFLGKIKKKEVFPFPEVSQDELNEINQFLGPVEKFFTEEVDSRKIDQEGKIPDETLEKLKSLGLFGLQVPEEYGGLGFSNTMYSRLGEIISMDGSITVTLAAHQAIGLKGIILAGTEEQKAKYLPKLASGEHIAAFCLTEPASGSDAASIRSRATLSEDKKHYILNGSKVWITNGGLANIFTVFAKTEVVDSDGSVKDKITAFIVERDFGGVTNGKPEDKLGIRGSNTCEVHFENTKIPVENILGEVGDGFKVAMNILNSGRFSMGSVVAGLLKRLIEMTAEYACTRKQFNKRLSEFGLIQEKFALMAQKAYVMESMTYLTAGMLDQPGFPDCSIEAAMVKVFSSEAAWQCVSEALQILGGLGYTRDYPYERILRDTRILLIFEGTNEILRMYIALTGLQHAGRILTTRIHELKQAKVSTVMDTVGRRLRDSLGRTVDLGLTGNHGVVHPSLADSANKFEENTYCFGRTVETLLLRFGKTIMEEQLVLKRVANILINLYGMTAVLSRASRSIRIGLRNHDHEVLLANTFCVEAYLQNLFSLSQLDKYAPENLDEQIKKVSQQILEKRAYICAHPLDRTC

[4] = molecular target: T2, ACAD9 (wild type, without a tag); experiment: SEC; remark: listed apart in the source
ACAD9 Arg518His = molecular target: T3, ACAD9 Arg518His (human, UniProt Q9H845 38-621, Arg518His); experiment: SEC
T3 sequence (looked up): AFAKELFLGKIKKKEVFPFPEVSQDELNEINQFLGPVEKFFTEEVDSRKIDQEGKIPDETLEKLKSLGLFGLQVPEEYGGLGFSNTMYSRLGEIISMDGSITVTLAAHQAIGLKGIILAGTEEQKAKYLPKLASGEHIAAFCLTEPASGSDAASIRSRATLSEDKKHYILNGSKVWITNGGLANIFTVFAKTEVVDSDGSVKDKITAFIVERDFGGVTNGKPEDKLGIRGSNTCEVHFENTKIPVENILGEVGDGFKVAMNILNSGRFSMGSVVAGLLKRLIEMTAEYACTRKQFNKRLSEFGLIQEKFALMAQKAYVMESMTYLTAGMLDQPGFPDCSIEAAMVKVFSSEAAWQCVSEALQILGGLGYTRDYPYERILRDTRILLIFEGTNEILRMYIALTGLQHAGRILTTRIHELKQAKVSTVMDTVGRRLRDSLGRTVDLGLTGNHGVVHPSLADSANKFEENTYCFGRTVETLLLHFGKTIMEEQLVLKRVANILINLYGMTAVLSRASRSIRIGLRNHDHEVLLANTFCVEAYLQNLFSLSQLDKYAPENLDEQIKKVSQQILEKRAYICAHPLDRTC

ACAD9 Arg469Trp = molecular target: T4, ACAD9 Arg469Trp (human, UniProt Q9H845 38-621, Arg469Trp); experiment: SEC
T4 sequence (looked up): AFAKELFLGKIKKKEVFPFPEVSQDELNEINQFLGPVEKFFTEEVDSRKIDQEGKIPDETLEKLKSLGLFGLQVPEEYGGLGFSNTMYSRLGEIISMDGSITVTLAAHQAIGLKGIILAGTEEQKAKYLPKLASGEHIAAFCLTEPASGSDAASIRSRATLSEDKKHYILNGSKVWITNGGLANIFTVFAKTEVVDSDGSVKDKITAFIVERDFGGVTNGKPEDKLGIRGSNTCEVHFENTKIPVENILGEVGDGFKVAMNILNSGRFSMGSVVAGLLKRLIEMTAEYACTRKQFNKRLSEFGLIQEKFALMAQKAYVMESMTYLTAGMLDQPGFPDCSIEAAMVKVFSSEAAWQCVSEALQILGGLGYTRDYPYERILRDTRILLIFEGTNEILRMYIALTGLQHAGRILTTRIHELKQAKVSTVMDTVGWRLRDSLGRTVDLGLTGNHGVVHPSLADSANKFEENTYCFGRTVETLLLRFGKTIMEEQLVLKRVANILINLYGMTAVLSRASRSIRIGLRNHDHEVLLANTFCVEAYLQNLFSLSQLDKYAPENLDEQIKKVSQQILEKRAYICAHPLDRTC

ACAD9 Glu426Gln = molecular target: T5, ACAD9 Glu426Gln (human, UniProt Q9H845 38-621, Glu426Gln); experiment: SEC
T5 sequence (looked up): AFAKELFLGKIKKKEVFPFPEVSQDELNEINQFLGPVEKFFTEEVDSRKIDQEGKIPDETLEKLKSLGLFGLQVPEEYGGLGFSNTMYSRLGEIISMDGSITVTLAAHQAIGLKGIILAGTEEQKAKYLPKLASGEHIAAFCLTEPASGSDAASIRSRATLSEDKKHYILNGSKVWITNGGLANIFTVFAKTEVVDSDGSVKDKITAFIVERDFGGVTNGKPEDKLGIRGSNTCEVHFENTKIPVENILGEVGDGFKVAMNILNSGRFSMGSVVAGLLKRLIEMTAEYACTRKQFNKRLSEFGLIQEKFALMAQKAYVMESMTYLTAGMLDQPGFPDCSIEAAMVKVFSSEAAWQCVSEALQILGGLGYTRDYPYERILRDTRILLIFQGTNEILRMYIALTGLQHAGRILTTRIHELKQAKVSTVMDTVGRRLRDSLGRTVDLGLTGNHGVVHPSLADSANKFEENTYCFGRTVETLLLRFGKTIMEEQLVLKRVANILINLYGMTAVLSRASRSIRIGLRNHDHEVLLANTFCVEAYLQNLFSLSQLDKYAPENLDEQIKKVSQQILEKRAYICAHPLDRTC

SEC = molecular target: the molecule itself; experiment: SEC

B1: His6-SMT3-NDUFAF1 (natural protein, human, UniProt Q9Y375 25-327, looked up)
chain: YPFLGIRFAEYSSSLQKPVASPGKASSQRKTEGDLQGDHQKEVALDITSSEEKPDVSFDKAIRDEAIYHFRLLKDEIVDHWRGPEGHPLHEVLLEQAKVVWQFRGKEDLDKWTVTSDKTIGGRSEVFLKMGKNNQSALLYGTLSSEAPQDGESTRSGYCAMISRIPRGAFERKMSYDWSQFNTLYLRVRGDGRPWMVNIKEDTDFFQRTNQMYSYFMFTRGGPYWQEVKIPFSKFFFSNRGRIRDVQHELPLDKISSIGFTLADKVDGPFFLEIDFIGVFTDPAHTEEFAYENSPELNPRLFK
stoichiometry N (His6-ECSIT [1]): 1 NDUFAF1 chains per ECSIT chain (two monomers with one dimer)
stoichiometry N (His6-ECSIT [2]): 1 mol/mol

B2: ECSIT (tag-free) (natural protein, human, UniProt Q9BQ95 49-431, looked up)
chain: SSEQSLVPSPPEPRQRPTKALVPFEDLFGQAPGGERDKASFLQTVQKFAEHSVRKRGHIDFIYLALRKMREYGVERDLAVYNQLLNIFPKEVFRPRNIIQRIFVHYPRQQECGIAVLEQMENHGVMPNKETEFLLIQIFGRKSYPMLKLVRLKLWFPRFMNVNPFPVPRDLPQDPVELAMFGLRHMEPDLSARVTIYQVPLPKDSTGAADPPQPHIVGIQSPDQQAALARHNPARPVFVEGPFSLWLRNKCVYYHILRADLLPPEEREVEETPEEWNLYYPMQLDLEYVRSGWDNYEFDINEVEEGPVFAMCMAGAHDQATMAKWIQGLQETNPTLAQIPVVFRLAGSTRELQTSSAGLEEPPLPEDHQEEDDNLQRQQQGQS
stoichiometry N (ACAD9-His6): ~1 mol/mol

B3
stoichiometry N [3]: 1 ECSIT chains per ACAD9 chain (one dimer with one dimer)
stoichiometry N [4]: 1 mol/mol
binding result (ACAD9 Arg518His): binds
binding result (ACAD9 Arg469Trp): binds
binding result (ACAD9 Glu426Gln): binds
stoichiometry N (SEC): 2
